Broadly, the IC50 is the concentration that gives 50% inhibition.

The values below come from paper PMC6947424, “New Targeted Gold Nanorods for the Treatment of Glioblastoma by Photodynamic Therapy” (Journal of Clinical Medicine, 2019).

The conditions of data set [1]: in toluene; ref [72]; cited from earlier work. Here is the method:
Fluorescence quantum yields (Φf) were determined using a tetraphenyl porphyrin (TPP) solution as the fluorescence standard (Φf = 0.11 in toluene, taking into account solvent refractive index and absorption efficiencies. For the direct determination of ^1O2 quantum yield (ΦΔ), excitation was performed with a Xe-arc, the light was separated in a SPEX 1680, 0.22 µm double monochromator. Detection at 1270 nm was carried out through a PTI S/N 1565 monochromator and the emission was monitored by a liquid nitrogen cooled Ge-detector (EO-817L, North Coast Scientific Co, OH, USA). Rose Bengal (R ... || These findings are also consistent with the Φf value of Pyro reported by other authors (Φf = 0.3 and in methanol). […] This property can serve in the ...

For data set [2] the following is noted: in EtOH; ref [73]; cited from earlier work. Here is the method: (§1) Fluorescence quantum yields (Φf) were determined using a tetraphenyl porphyrin (TPP) solution as the fluorescence standard (Φf = 0.11 in toluene, taking into account solvent refractive index and absorption efficiencies. For the direct determination of ^1O2 quantum yield (ΦΔ), excitation was performed with a Xe-arc, the light was separated in a SPEX 1680, 0.22 µm double monochromator. Detection at 1270 nm was carried out through a PTI S/N 1565 monochromator and the emission was monitored by a liquid nitrogen cooled Ge-detector (EO-817L, North Coast Scientific Co, OH, USA). Rose Bengal (R ...

The nature of data set [3]: UV-vis absorption. It is filed as physicochemical. The conditions noted are these: ethanol, Soret band. Here is the method: (§2) The setup and the protocol to evaluate the photophysical characterizations including the absorption, fluorescence, and singlet oxygen emission spectra in addition to the fluorescence and singlet oxygen lifetimes have been previously described by our team. The absorption spectra were recorded on a UV-3600 UV–vis double beam spectrophotometer (Shimadzu, Marne La Vallée, France) in the wavelength range of 200-800 nm. The measurements were performed on the molecules dispersed in ethanol in quartz cuvettes with an optical path of 10 mm. The fluorescence spectra were recorded on a Horiba Jobin Yvon Fluorolog-3 (FL3-222) spectrofluorimeter equipped with a 450W xenon lamp, a thermostated cell compartment (25 °C), a R928 (Hamamatsu, Massy, France) UV–vis photomultiplier and a liquid nitrogen cooled InGaAs infrared detector (DSS-16A020L Electro-Optical System Inc., Phoenixville, PA, USA). The excitation spectrometer used is a SPEX double grating monochromator (1200 grooves per mm blazed at 330 nm). The fluorescence was measured using the UV–vis detector through a SPEX double grating monochromator (600 grooves per mm blazed at 500 nm). The singlet oxygen production was measured using the IR detector through a SPEX double grating monochromator (600 grooves per mm blazed at 1 μm).
The photophysical properties at the different synthetic stages of the hybrid AuNRs@PEG-MI-K(Pyro)DKPPR-OH, including the peptide derivatives as intermediates, were studied and compared to that of free Pyro. These properties include the UV-vis absorption, the florescence emission (quantum yield (Φf) and lifetime (τf)) and the ^1O2 production (quantum yield (ΦΔ) and lifetime (τΔ)). To determine these properties, the optical density (OD) of the Soret band of the Pyro component (412 nm) was adjusted at about 0.2. Controls, such as TPP dissolved in toluene, as a standard for fluorescence emission, and RB dissolved in ethanol, as a standard for ^1O2 production, were used. Ethanol was chosen to dissolve the studied molecules since it is a convenient solvent for the detection of fluorescence and ^1O2 emission. […]

Data set [4] can be described thus: Fluorescence emission (quantum yield and lifetime). The class given is physicochemical. The conditions noted are these: ethanol. Here is the method:
as §2
as §1, with “(RB) was chosen as a reference solution because of its high ^1O2 quantum yield in EtOH (ΦΔ = 0.68). The absorbance value at the excitation wavelengths (412 nm) of both the reference and the sample solutions were set to approximately 0.2 by dilution. The samples were all prepared in ethanol.” for “(R ...”
The quantum yield of fluorescence is determined by the equation (1):(1) Φf=Φf0×If/If0×[…]×(n/n0)^2 where Φf and Φf0, If and If0, DO and DO0, n and n0 are the quantum yields, intensities, optical densities and refraction indices of the sample and reference, respectively.
(§3) Fluorescence lifetimes were measured by Time-Correlated Single Photon Counting (TCSPC) using for excitation a pulsed laser diode LDH-P-C-405 coupled with a PDL 800-D driver (both from PicoQuant GmbH, Berlin, Germany) emitting at 408 nm (FWHM < 70 ps, 1 MHz) and an SPCM-AQR-15 avalanche photodiode (EG & G, Vaudreuil, Canada) coupled with a 650 nm (±10 nm) interference long-wave pass filter as the detection system. The acquisition system was a PicoHarp 300 module with a PHR-800 four-channel router (both from PicoQuant GmbH, Berlin, Germany). Fluorescence decays were recorded using the single photon counting method (four optical faced quartz cells for pure products in ethanol). Data were collected, and up to 1000 counts were accumulated in the maximum channel and analyzed using Fluofit TCSPC software (PicoQuant GmbH, Berlin, Germany) based on iterative reconvolution using a Levensberg-Marquandt algorithm. Singlet oxygen lifetime measurements have been performed on a TEMPRO-01 spectrophotometer (Horiba Jobin Yvon, Palaiseau, France). The apparatus was composed of a pulsed diode excitation source SpectraLED-415 emitting at 415 nm, a cuvette compartment, a Seya–Namioka type emission monochromator (600–2000 nm), and an H10330-45 near-infrared photomultiplier tube with a thermoelectric cooler (Hamamatsu, Massy, France) as the detection system. The system was monitored by a single photon counting controller FluoroHub-B and the software DataStation and DAS6 (Horiba Jobin Yvon, Palaiseau, France). […]

Data set [5] in a line: Singlet oxygen production (quantum yield and lifetime). It is filed as physicochemical. The conditions noted are these: ethanol. Here is the method:
as §2
as §1, with “(RB) was chosen as a reference solution because of its high ^1O2 quantum yield in EtOH (ΦΔ = 0.68). The absorbance value at the excitation wavelengths (412 nm) of both the reference and the sample solutions were set to approximately 0.2 by dilution. The samples were all prepared in ethanol.” for “(R ...”
The quantum yield of singlet oxygen production is determined by the equation (2):(2) ΦΔ=ΦΔ0×I/I0×[…] where ΦΔ and ΦΔ0, I and I0, DO and DO0 are the luminescence quantum yields of singlet oxygen, the luminescence intensities and the optical densities of the sample and reference, respectively.
as §3

Data set [6] addresses T1, recombinant NRP-1 protein (neuropilin-1) (UniProt O14786 22-856).
T1 construct: Neuropilin-1 (NRP-1), recombinant protein bought from Bio-Techne; Coated on the ELISA plate; also called neuropilin-1 receptor; NPR-1; source: bought: Bio-Techne
T1 sequence (looked up): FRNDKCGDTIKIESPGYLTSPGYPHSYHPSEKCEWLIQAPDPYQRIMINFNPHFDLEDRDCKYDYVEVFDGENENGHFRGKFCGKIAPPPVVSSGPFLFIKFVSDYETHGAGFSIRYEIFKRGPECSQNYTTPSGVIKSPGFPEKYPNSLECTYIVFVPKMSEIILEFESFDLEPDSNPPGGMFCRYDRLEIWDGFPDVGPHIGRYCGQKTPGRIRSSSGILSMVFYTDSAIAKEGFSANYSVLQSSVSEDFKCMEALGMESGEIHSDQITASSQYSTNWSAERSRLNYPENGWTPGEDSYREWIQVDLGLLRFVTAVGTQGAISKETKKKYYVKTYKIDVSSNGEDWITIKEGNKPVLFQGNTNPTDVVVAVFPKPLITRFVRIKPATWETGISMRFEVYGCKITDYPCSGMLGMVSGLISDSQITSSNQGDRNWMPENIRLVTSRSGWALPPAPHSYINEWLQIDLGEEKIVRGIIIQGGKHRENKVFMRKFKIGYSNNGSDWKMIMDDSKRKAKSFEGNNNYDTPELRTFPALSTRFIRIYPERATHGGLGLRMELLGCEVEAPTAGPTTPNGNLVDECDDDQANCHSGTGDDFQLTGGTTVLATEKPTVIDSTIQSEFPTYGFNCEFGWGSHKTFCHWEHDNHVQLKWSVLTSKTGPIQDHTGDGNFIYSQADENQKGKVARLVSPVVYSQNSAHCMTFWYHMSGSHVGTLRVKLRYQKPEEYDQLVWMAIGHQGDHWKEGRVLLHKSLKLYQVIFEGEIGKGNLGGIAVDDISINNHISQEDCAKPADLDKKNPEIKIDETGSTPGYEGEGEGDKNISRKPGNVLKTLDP
Briefly: ELISA; competition; NRP-1 coated on 96 well plate at 2 μg/mL in PBS overnight at room temperature, blocked with PBS 0.5 % BSA; 5 ng/mL biotinylated VEGF-A165 in blocking buffer with 2 μg/mL heparin, with different peptide concentrations of competitor, 2 h at room temperature; streptavidin-HRP, OD 450 nm. The conditions noted are these: both partners purified. On the technique in general: An ELISA detects its analyte on a solid surface through an enzyme-linked reagent.

No end group written: not given here. *: point of attachment. Pyropheophorbide(a) = C=Cc1c(C)c2cc3nc(c4c5[nH]c(cc6nc(cc1[nH]2)C(C)=C6CC)c(C)c5C(=O)C4)[C@@H](CCC(=O)*)[C@@H]3C; Hexanoyl(6-maleimido) = O=C1C=CC(=O)N1CCCCCC(=O)*

Consider `C1=Cc2nc1c(-c1ccccc1)c1nc(c(-c3ccccc3)c3ccc([nH]3)c(-c3ccccc3)c3ccc([nH]3)c2-c2ccccc2)C=C1` [TPP, tetraphenyl porphyrin], for which, in data set [1], the “Φf of fluorescence standard” value is 0.11.
Regarding `O=C([O-])c1c(Cl)c(Cl)c(Cl)c(Cl)c1-c1c2cc(I)c(=O)c(I)c-2oc2c(I)c([O-])c(I)cc12.[Na+].[Na+]` [Rose Bengal], the “ΦΔ of singlet oxygen reference” value in data set [2] is reported as 0.68.
Take “H-K(Pyro)DKPPR-OH [DKPPR peptide extended with Pyro-bearing lysine, free N-terminus]”: in data set [3], the λmax is listed as 412 nm. The “τf (fluorescence lifetime)” value in data set [4] (TCSPC, single exponential fit) was 6.8 ns. The “Φf (fluorescence quantum yield)” value in data set [4] (excitation 412 nm, TPP in toluene as standard, 25 °C) is 0.34. Besides, the “τΔ (singlet oxygen lifetime)” value in data set [5] is listed as 14 μs. Further, the “ΦΔ (singlet oxygen quantum yield)” value in data set [5] (excitation 412 nm, detection 1270 nm, Rose Bengal as reference) is reported as 0.44.

B1: MI-K(Pyro)DKPPR-OH (peptide)
peptide: {Hexanoyl(6-maleimido)}-K(Pyropheophorbide(a))DKPPR-OH
SMILES: C=Cc1c(C)c2cc3nc(c4c5[nH]c(cc6nc(cc1[nH]2)C(C)=C6CC)c(C)c5C(=O)C4)[C@@H](CCC(=O)NCCCC[C@H](NC(=O)CCCCCN1C(=O)C=CC1=O)C(=O)N[C@@H](CC(=O)O)C(=O)N[C@@H](CCCCN)C(=O)N1CCC[C@H]1C(=O)N1CCC[C@H]1C(=O)N[C@@H](CCCNC(=N)N)C(=O)O)[C@@H]3C
notes: KDKPPR peptide; first lysine bears Pyro on its side chain and MI on its alpha-amine; free C-terminal acid; also called PP-PS conjugate; peptide-photosensitizer conjugate; source: synthetic peptide (Fmoc/tBu solid phase, preparative HPLC)
For B1, the IC50 in data set [6] stood at 1.5 µM.

B2: AuNRs@PEG-MI-K(Pyro)DKPPR-OH (other)
peptide: K(Pyropheophorbide(a))DKPPR-OH
modifications: not fully specified (N-terminus); printed as AuNRs@PEG-MI-K(Pyro)DKPPR-OH; also: MI joined by thioether to AuNRs@PEG-SH
notes: KDKPPR peptide of m4, grafted through its N-terminal maleimide onto the surface of PEGylated gold nanorods; Many peptide copies on each nanorod (multivalent); 1 mg/mL of the nanorods holds 257.7 µM of peptide; also called hybrid AuNRs; functionalized AuNRs
Consider B2, for which the IC50 in data set [6] was 1.1 µM.

B3: H-KDKPPR-OH peptide (peptide)
peptide: H-KDKPPR-OH
notes: free peptide with free N-terminus (H-) and free C-terminal acid (-OH), developed by the authors' team to target NRP-1; also called free KDKPPR peptide; source: synthetic peptide
Turning to B3, the IC50 in data set [6] was 2 µM.
